Results on 10 molecules are retold here after patent US20050282743A1, “Molecular interactions in cells” (Arbor Vita Corporation, priority 2001, published 2005).

Common to all, as to experiment: G' assay
The target of assay [1] is T1, GST-KIAA0380 PDZ domain 1 (Homo sapiens (Human)), O15085.
T1 chain: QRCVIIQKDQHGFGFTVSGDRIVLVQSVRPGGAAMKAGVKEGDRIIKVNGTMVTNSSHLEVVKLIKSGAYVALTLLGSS

The target of assay [2] is GST-KIAA0316 PDZ domain 1 (Homo sapiens (Human)), Q14CM0.
For assay [3], the target named is GST-Unnamed Protein PDZ domain 2 [GST: P08515].
Chain of GST-Unnamed Protein PDZ domain 2 [GST: P08515] (P08515 whole entry, the tested form may be a part): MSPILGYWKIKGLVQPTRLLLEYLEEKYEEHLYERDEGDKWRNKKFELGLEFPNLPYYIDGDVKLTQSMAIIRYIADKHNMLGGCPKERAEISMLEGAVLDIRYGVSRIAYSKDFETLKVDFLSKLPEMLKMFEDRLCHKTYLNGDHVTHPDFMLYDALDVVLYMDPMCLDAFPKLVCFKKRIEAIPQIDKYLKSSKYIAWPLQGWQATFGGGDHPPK
The target of assay [4] is GST-PIST PDZ domain 1 (Mus musculus (Mouse)), Q8BH60.
Assay [5] concerns the target T2, GST-GRIP 1 PDZ domain 3 (Homo sapiens (Human)), Q9Y3R0.
T2 chain: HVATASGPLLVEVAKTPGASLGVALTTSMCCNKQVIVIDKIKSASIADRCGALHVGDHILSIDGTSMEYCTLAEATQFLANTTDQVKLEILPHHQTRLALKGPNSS

Assay [6] has as its target T3, GST-LIMK1 PDZ domain 1 (Homo sapiens (Human)), P53667.
T3 chain: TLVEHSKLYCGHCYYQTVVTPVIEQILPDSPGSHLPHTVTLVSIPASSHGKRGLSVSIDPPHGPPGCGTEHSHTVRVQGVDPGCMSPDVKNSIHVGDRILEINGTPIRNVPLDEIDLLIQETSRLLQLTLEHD

The target of assay [7] is T4, GST-KIAA1095 PDZ domain 1 (Homo sapiens (Human)), Q9UPQ7.
T4 chain: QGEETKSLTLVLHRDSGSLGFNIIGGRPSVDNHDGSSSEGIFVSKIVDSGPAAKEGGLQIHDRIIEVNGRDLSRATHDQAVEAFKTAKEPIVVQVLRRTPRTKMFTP

Assay [8] deals with T5, GST-FLJ11215 PDZ domain 1 (Mus musculus (Mouse)), O88952.
T5 chain: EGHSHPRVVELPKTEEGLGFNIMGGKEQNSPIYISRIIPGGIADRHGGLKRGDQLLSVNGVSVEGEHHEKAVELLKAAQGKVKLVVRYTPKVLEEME

The target in assay [9] is T6, GST-NeDLG PDZ domain 1 (Mus musculus (Mouse)), P70175.
T6 chain: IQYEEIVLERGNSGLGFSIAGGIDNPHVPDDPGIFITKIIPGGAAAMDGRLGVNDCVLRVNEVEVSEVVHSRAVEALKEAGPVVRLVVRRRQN

The target of assay [10] is GST-DLG2 PDZ domain 1 (Homo sapiens (Human)), Q15700.
Assay [11] addresses T7, GST-Connector Enhancer PDZ domain 1 (Homo sapiens (Human)), Q969H4.
T7 chain: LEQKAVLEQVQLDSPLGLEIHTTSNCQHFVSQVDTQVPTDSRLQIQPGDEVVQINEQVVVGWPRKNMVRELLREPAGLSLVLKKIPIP

The target of assay [12] is GST-KIAA1222 PDZ domain 1 (Rattus norvegicus (Rat)), O35867.
Chain of GST-KIAA1222 PDZ domain 1 (Rattus norvegicus (Rat)), O35867 (O35867 499-598, tags or fused parts left off): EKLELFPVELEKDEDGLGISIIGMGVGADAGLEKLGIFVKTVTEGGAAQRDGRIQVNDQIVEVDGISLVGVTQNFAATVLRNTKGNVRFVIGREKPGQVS
In assay [13] the target is T8, GST-MUPP1 PDZ domain 8 (Homo sapiens (Human)), O75970.
T8 chain: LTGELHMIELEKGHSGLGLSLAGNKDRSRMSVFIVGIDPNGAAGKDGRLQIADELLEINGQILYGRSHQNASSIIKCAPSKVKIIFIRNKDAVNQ

The target of assay [14] is GST-CARD14 PDZ domain 1 (Homo sapiens (Human)), Q9BXL6.
Chain of GST-CARD14 PDZ domain 1 (Homo sapiens (Human)), Q9BXL6 (Q9BXL6 565-664): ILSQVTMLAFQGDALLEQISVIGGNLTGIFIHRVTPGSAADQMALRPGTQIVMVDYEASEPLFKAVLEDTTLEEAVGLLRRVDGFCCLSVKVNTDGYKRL
Assay [15] concerns the target T9, GST-SITAC-18 PDZ domain 2 (Homo sapiens (Human)), Q9H190.
T9 chain: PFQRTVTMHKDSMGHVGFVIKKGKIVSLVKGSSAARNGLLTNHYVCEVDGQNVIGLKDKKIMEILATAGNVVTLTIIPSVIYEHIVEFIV

Assay [16] addresses T10, GST-KIAA0340 PDZ domain 1 (Homo sapiens (Human)), Q86UR5.
T10 chain: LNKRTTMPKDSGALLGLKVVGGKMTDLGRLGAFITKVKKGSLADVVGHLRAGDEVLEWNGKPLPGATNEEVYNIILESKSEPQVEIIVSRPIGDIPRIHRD

For assay [17], the target named is T11, GST-Atrophin-1 Interacting Protein PDZ domain 6 (Rattus norvegicus (Rat)), O88382.
T11 chain: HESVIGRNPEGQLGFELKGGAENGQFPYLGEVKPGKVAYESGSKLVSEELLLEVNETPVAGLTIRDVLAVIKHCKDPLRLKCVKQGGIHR

In assay [18] the target is T12, GST-KIAA1284 PDZ domain 1 (Homo sapiens (Human)), Q9ULD6.
T12 chain: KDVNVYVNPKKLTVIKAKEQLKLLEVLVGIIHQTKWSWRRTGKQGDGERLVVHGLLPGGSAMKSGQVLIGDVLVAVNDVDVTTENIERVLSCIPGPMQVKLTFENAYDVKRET

In assay [19] the target is T13, GST-MUPP1 PDZ domain 6 (Homo sapiens (Human)), O75970.
T13 chain: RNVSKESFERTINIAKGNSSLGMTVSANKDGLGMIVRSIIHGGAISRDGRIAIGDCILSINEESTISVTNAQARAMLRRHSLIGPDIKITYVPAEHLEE

For assay [20], the target named is T14, GST-GRIP 1 PDZ domain 5 (Homo sapiens (Human)), Q9Y3R0.
T14 chain: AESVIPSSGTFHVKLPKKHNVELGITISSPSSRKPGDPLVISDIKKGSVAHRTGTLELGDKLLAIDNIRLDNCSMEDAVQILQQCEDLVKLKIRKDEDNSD

Assay [21] has as its target T15, GST-MUPP1 PDZ domain 2 (Homo sapiens (Human)), O75970.
T15 chain: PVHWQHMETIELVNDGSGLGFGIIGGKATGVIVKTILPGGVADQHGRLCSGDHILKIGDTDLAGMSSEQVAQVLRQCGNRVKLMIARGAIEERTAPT

The mark [22] stands for this setting: remark: other sources report otherwise.

Where two headings read alike, the source gives them in different places.
Further: key of the grades not given here.

Chain of GST-KIAA0316 PDZ domain 1 (Homo sapiens (Human)), Q14CM0 (Q14CM0 72-159): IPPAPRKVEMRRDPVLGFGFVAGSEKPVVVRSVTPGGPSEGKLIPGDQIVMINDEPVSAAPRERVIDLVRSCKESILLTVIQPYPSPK

B1: a-actinin 2 (peptide)
peptide: VPGALDYAAFSSALYGESDL
modifications: not checked
On to B1, for which the Classification in assay [1] and in assay [2] was 1 A450 class throughout.

B2: LPAP (peptide)
peptide: AWDDSARAAGGQGLHVTAL
modifications: not checked
Consider B2, for which the Classification in assay [3] was 3 A450 class; in assay [4], 1 A450 class; in [2] (setting [22]), 1 A450 class; in [5], 1 A450 class.

B3: NMDA Glutamate Receptor 2C (cysteine-free) (peptide)
peptide: TQGFPGPATWRRISSLESEV
modifications: not checked
With B3, the Classification in assay [6] worked out at 1 A450 class; in assay [7] it was 1 A450 class; in assay [8], 1 A450 class; in assay [9], 2 A450 class; in [1], 1 A450 class; in assay [10] it was 4 A450 class.

B4: AdenoE4 typ9 (peptide)
peptide: VGTLLLERVIFPSVKIATLV
modifications: not checked
For B4, the Classification in [11] was 3 A450 class; in assay [12], 1 A450 class; in assay [4], 1 A450 class; in assay [9], 1 A450 class.

B5: alpha-2A Adrenergic receptor (peptide)
peptide: HDFRRAFKKILARGDRKRIV
modifications: not checked
Regarding B5, the Classification in assay [13] stood at 1 A450 class; in assay [14], 1 A450 class; in assay [15] it was 4 A450 class; in [16], 1 A450 class; in [17], 1 A450 class; in [3], 1 A450 class. Also, the Classification stood at 1 A450 class in assay [18] and 2 A450 class in assay [19].

B6: KIA 1481 (peptide)
peptide: PIPAGGCTFSGIFPTLTSPL
modifications: not checked
On to B6, for which the Classification in [7] was 1 A450 class.

B7: ephrin B2 (peptide)
peptide: ILNSIQVMRAQMNQIQSVEV
modifications: not checked
As for B7, the Classification worked out at 1 A450 class in assay [14]; 3 A450 class in [15]; 2 A450 class in assay [16]; 1 A450 class in assay [17]; 1 A450 class in assay [20]; 1 A450 class in assay [18]. In addition, the Classification in [19] was 2 A450 class; in assay [5], 1 A450 class.

B8: TAX (peptide)
peptide: QISPGGLEPPSEKHFRETEV
modifications: not checked
For the molecule B8, the Classification in [11] (setting [22]) came out at 1 A450 class; in [6] it was 1 A450 class; in assay [8], 1 A450 class; in assay [10], 2 A450 class.

B9: CSPG4 (chondroitin sulfae proteoglycan 4, melanoma-associated) (peptide)
peptide: ELLQFCRTPNPALKNGQYWV
modifications: not checked
Consider B9, for which the Classification in assay [13] stood at 2 A450 class; in [20], 1 A450 class; in [21], 5 A450 class.

B10: MINT-1 (peptide)
peptide: KTMPAAMYRLLTAQEQPVYI
modifications: not checked
Take B10: the Classification in assay [12] and in assay [21] was 1 A450 class throughout.
